Source: the supplement of paper PMC10567573

B1: FBXO33 (parent)
chain: RLRGLLRVLRGRPGAGSRRRGRMA

Variants of: B1
Assay: protein stability index of a GFP-peptide fusion (GPS, HEK-293T) (PSI 1-6); higher = more stable
Conditions: c terminus: a fixed tail appended
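Note: lentivirally expressed fusions sorted by FACS into six bins by GFP to DsRed ratio, PSI derived from sequencing read proportions per bin multiplied by bin number.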

Protein stability index of substitutions, site by site:
L2: E 3.99 | K 3.56 | P 4.19 | W 3.3 | Q 5.05 | F 2.1 | M 3.22 | H 4.34
R7: W 1.69 | L 2.56 | Y 2.41 | T 2.05 | I 2.17 | S 2.83 | E 2.04 | N 2.35 | G 2.86
L5: W 1.85 | D 4.05 | N 4.52 | P 4.32 | A 4.21 | M 2.88 | Y 3.49 | S 4.64 | C 3.17 | G 4.71 | Q 3.78 | V 2.71 | E 3.98
G4: C 1.45 | L 2.2 | P 2.23 | D 1.88 | R 2.06 | H 1.29 | E 2.08
V8: K 1.91 | T 1.81 | C 2.06 | P 4.41 | S 1.93 | Y 2.64 | F 2.83 | I 2.84 | W 1.87 | N 2.01 | R 2.54 | H 2.1 | D 2.47
R19: K 1.89 | Q 1.75 | S 1.79 | E 1.43 | H 1.88 | N 1.71
A15: Q 1.49 | K 1.25 | F 1.93 | W 1.8 | D 1.66 | N 1.8 | L 1.19 | S 1.6 | T 1.47 | G 1.54 | R 2.46 | Y 2.17 | C 1.71
L6: I 2.18 | V 2.77 | R 4.41 | G 4.8 | D 5.1 | C 2.07 | T 4.48 | A 3.57 | K 2.73 | E 2.75
G16: Y 1.86 | T 2.96 | N 2.57 | P 2.06 | L 1.44 | Q 1.65 | S 1.5 | H 1.83 | F 1.79 | E 2.94 | I 1.01
L9: W 2.83 | N 3.72 | Y 2.73 | Q 3.39 | E 3.75 | T 4 | V 1.92 | F 3.09 | K 3.26
S17: A 1.75 | E 2.36 | T 3.32 | L 2.86 | K 2.01 | Y 2.52 | F 2.58 | G 1.92
R1: Q 2.02 | S 1.75 | W 1.69
R12: W 1.79 | D 2.31 | T 2.03 | Q 2.17 | G 2.53 | S 2.19 | L 1.66 | A 3.08 | I 1.06
R18: F 1 | P 1.08 | V 1.26 | H 1.59 | G 1.16 | Q 2.83 | L 1.15 | Y 1.95 | E 1.99 | C 1.8 | I 1.72
P13: I 1.6 | F 2.1 | Q 2.34 | S 3.48 | H 1.77 | K 3.26 | D 2.01 | C 2.09 | V 2.68
G11: H 1.92 | T 2.23 | I 2.77 | E 1.83 | N 2.47 | P 2.23 | C 1.64
R10: N 1.72 | A 1.96 | C 2.99 | S 1.93 | P 2.59 | I 2.25
G14: C 1.84 | Y 3 | A 2.84 | F 1.85 | W 2.76 | M 1.92 | V 2.04 | L 1.41 | K 1.86
R3: Q 2.21 | D 2.67 | K 2.83 | T 2.23 | M 1.54 | V 1.02
